# ± gives the standard deviation.
# Assay: protein stability index of a GFP-peptide fusion (GPS, HEK-293T) (PSI 1-6); higher = more stable
# Details: c terminus: a fixed tail appended
# 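Also: 24-mer peptide tiles fused after GFP, lentivirally expressed, FACS-sorted into six equal bins by GFP/DsRed ratio, decoded by Illumina sequencing, PSI is the read-weighted mean bin number.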
Sequence,protein stability index (treatment: DMSO),"protein stability index (treatment: MLN4924 1 uM, 8 h)"
LDSRSTDRVLQWERIDCQGIPPSS [KLHDC2],4.09 ± 0.29,3.98 ± 0.24
KAFLTKTMLIVHHRTHTGERPYGC [ZNF649],2.45 ± 0.3,2.03 ± 0.23
NIPMETEETHLEETTESQQNGEEG [SMARCE1],5.39 ± 0.5,5.6 ± 0.21
TLSKPSPMPVSQECFETLRGDERI [CHGA],4.81 ± 0.26,4.75 ± 0.17
RQVNIRTANCTTANQNCVNKSKLL [KCNA1],3.51 ± 0.12,3.48 ± 0.28
MAAAQEADGARSAVVAAGGGSSGQ [CLPTM1],5.36 ± 0.26,5.29 ± 0.2
RFFACPSKATFSRNIMNLIDIVAI [KCNA3],2.8 ± 0.61,2.87 ± 0.46
ETVQTWIELLTGETWNPFKLQYQL [GOLPH3L],2.65 ± 0.6,2.74 ± 0.71
CGSQLSSTKGSRSNLSTRDASILT [NETO1],2.62 ± 0.2,2.65 ± 0.21
RASFWLALVGCVISDNPERYSTNL [EDNRA],2.85 ± 0.68,2.97 ± 0.62
ERPRMNANSLLASPTGLSPYLRFG [CRY1],2.89 ± 0.21,2.98 ± 0.22
GSDKCVFLKNTEVSSMECEKNLYW [CD69],3.06 ± 0.26,3.12 ± 0.36
ADADCFVCVFLSHGEGNHIYAYDA [CASP6],2.82 ± 0.66,2.81 ± 0.75
SRLRFLNLGRMIDWVPVESLLRPL [ZER1],2.16 ± 0.13,2.24 ± 0.25
ADLSSGSSGEDDDFKSCPQGPQGR [PWWP2B],5.36 ± 0.15,5.52 ± 0.13
QLKESKSKIDALSSEKLNLQKDLE [CEP70],5.03 ± 0.1,5.16 ± 0.13
DPKRRMTIAQSLEHSWIKAIRRRN [DAPK3],3.67 ± 0.33,3.91 ± 0.35
PPPELMDVSLVGGPADCSPPHPAP [DYRK1B],5.08 ± 0.22,5.1 ± 0.11
DCPKIVEPHGKMFNEQTWEVSQQD [ZSCAN9],5.16 ± 0.089,5.18 ± 0.11
LGLAGRCLTLTPRPATEAELLTCH [HDAC6],2.86 ± 0.26,2.7 ± 0.4
TDRKLDDGDDKVFRRAPSWRKRFR [PPFIA4],4.38 ± 0.082,4.51 ± 0.47
IIANTMAFQNDVYEWARDHRAHHK [SCD],2.52 ± 0.17,2.86 ± 0.27
LYVLKGGYKEFFMKCQSYCEPPSY [CDC25A],2.62 ± 0.68,2.65 ± 0.27

Sequence,protein stability index (treatment: DMSO),"protein stability index (treatment: MLN4924 1 uM, 8 h)"
AQTIPTKDRLEGLLAFKEKRPPRY [AUH],3.73 ± 0.24,4.06 ± 0.24
LFNILAKFNGITEKEYKTYKENFL [USP39],2.16 ± 0.43,2.5 ± 0.25
EIVNYEPLGLEADMWSIGVITYIL [DAPK3],2.35 ± 0.48,1.98 ± 0.27
AAMEGATLDQTTSEEAPGGTELIQ [HDAC6],5.64 ± 0.12,5.47 ± 0.22
LKHWRRAMELRHQGGEYLPKPEPP [FEM1A],3.08 ± 0.53,3.16 ± 0.41
VMFKIGDLGHVTRISSPQVEEGDS [WEE1],3.44 ± 0.23,3.45 ± 0.37
RGFMEMNGRGELVESLKRFCASTR [AUP1],2.54 ± 0.3,2.73 ± 0.18
TPGLGVVAVLLLFLVVREPPRGAV [SPNS1],2.69 ± 0.44,3.28 ± 0.6
ETVADVRTLPNASTVDNIRSIFGN [MLH1],4.21 ± 0.18,4.19 ± 0.11
FRFDKPKKSRSPASAEAPGDSGER [ZNF511],4.95 ± 0.11,5.11 ± 0.38
GYYSEKLEAIQLDGEILFSLLQKV [TBC1D10A],2.44 ± 0.59,2.53 ± 0.32
TSFQWVTKWVDYSNKYGFGYQLSD [PLK2],2.06 ± 0.57,2.08 ± 0.31
GAGDVVLLQRELAQEDSLNKLALQ [LYSMD4],4.29 ± 0.29,4.01 ± 0.5
MYDNELWAPASEGLKPGPEDGPGK [SERTAD1],4.99 ± 0.46,5.25 ± 0.22
RIKIWDVYTGKLLLNLVDHTEVVR [WSB1],2.61 ± 0.59,2.57 ± 0.34
FTLASSSDTRVGAPATGSGTPGPF [CHIT1],3.73 ± 0.19,3.84 ± 0.39
RYTGTTPSPPPGSHYTSPSENMWN [CARM1],3.48 ± 0.23,3.57 ± 0.23
TFHHPTYGSCYTVDGVWTAQRPGI [SCNN1D],2.61 ± 0.41,2.61 ± 0.29
HEWKSLAPMDAPRYQHGIAVIGNF [KLHL13],2.22 ± 0.2,2.17 ± 0.26
FNKGIYDIHVGLRGVPLLEWETEV [CLCN6],2.13 ± 0.32,2.17 ± 0.44
FEAPPLQGQAAAPASGSGADSEPA [TRIM55],5.65 ± 0.28,5.53 ± 0.1
ATNQCTIDKNRRKSCQACRLRKCY [ESR2],3.39 ± 0.25,3.47 ± 0.18
HDSANCELPLLTPCSKAVMSQALK [ETS2],3.34 ± 0.28,3.45 ± 0.24

Sequence,protein stability index (treatment: DMSO),"protein stability index (treatment: MLN4924 1 uM, 8 h)"
FTDYGLAALAVNTSILSRLPPEAL [RNF208],2.29 ± 0.25,2.13 ± 0.31
WRDSKGKDKEYAEIIRKQVSATKA [UBE2R2],3.9 ± 0.34,4.07 ± 0.46
LVQLDDYRFASAGDDGIVVVWNAQ [WDR41],2.64 ± 0.28,2.87 ± 0.31
LTSDLYAPMVAGALARLGTVTVIS [SLC25A39],2.92 ± 0.4,2.67 ± 0.69
PSHSDNLLHGLNLLWRKQLFCDVT [KLHL14],1.96 ± 0.33,2.16 ± 0.3
IAAPHAGANVKPRNSTPPSLARNP [ZC2HC1A],4.35 ± 0.12,4.48 ± 0.25
SYNITVTATDGGSPPLSTEAHFML [PCDHGA10],2.03 ± 0.36,2.09 ± 0.4
NDADKAINTLNGLKLQTKTIKVSY [ELAVL3],2.96 ± 0.23,3.11 ± 0.25
NYRSFEPILRLLPQGISPVSQHWA [ZER1],2 ± 0.27,2.09 ± 0.26
GKGEGPIWLDNLHCTGNEATLAAC [LOXL2],3.43 ± 0.23,3.52 ± 0.57
DTTTPTTSAITASRSESPPPLSDP [BRD3],5.45 ± 0.42,5.57 ± 0.12
EAACNDVDRWPAPVPGKTLHLPIM [DENND6A],3.52 ± 0.35,3.19 ± 0.37
LLEGTPSSASEGDEDLRRQMQDDE [PALM],5.45 ± 0.25,5.49 ± 0.28
YQAGKPDALTKLEQGEPLWTLEDE [ZNF649],4.57 ± 0.17,4.6 ± 0.18
MSRQFTCKSGAAAKGGFSGCSAVL [KRT71],2.59 ± 0.35,2.18 ± 0.43
ETHLRHMKALLGSYAHSVEDTHVQ [FCHO1],3.49 ± 0.5,3.35 ± 0.29
QRRRRVENAGGSPSPEPAGRRAAL [RSAD1],5.11 ± 0.4,5.15 ± 0.27
IYVVGGFDGTAHLSSVEAYNIRTD [KLHL12],3.08 ± 0.28,
LQGSLFGLAGLLPASYTAPIMSGQ [SLC29A1],2.44 ± 0.28,2.27 ± 0.3
KFKESFAEMNRGSNEWKTVVGGAM [COX4I1],3 ± 0.13,3.2 ± 0.29
TPSEEHMKNKNNVTEFILLGLTQN [OR4A15],3.26 ± 0.33,3.21 ± 0.21
KPDGTVEQIGHILVSWLPRLNAYR [NET1],2.21 ± 0.52,2.1 ± 0.1
GMDPERLKAFNMFVRLFVDENLDR [NOL4L],2.1 ± 0.42,2.39 ± 0.37

Sequence,protein stability index (treatment: DMSO),"protein stability index (treatment: MLN4924 1 uM, 8 h)"
RGGGAAGAGGGGSGAGGGSGGSGG [KLHDC10],5.2 ± 0.66,4.89 ± 0.48
EEVDVTSVDPIAAFCSSDEELEDS [RBBP5],5.55 ± 0.2,5.62 ± 0.16
LQAPVPPDSVPSLQNMGLLLDKLA [PBXIP1],3.11 ± 0.44,2.86 ± 0.46
KLEESKQLLKNNEKLITWLNKELN [SASS6],2.24 ± 0.36,1.99 ± 0.73
TNHIAPHARNGLSLKEEHRAYDLL [IKZF1],3.43 ± 0.28,3.64 ± 0.11
ITLKYPHYFPVMKKCCIPETRRRM [NLN],2.1 ± 0.27,1.97 ± 0.37
MADKAKPAKAANRTPPKSPGDPSK [TPPP],5.22 ± 0.25,5.39 ± 0.15
PPPPIDNGDITSFLLSVYAPGSSV [CFHR2],2.66 ± 0.33,2.65 ± 0.37
QEHSNSVGGQDTGATWRTSGLLEE [C18orf25],5.28 ± 0.27,4.96 ± 0.18
LIVGAPIWFRVPYSIISLLLKDKV [PTPN9],2.59 ± 0.37,2.75 ± 0.85
SFLWQRGRKFLQKHLNASNPTEPA [TOR1AIP2],2.86 ± 0.13,3.05 ± 0.17
LDFTHPKARDWFQGHLRRLRSRYS [MYORG],2.79 ± 0.39,2.97 ± 0.074
LCIHTGRELRCKVFPIKHYQDKIR [TRIB1],2.27 ± 0.52,2.18 ± 0.18
DGSTYKIELEGISVMVMREILDYI [GAN],2.3 ± 0.39,1.93 ± 0.15
ALPSSAPSGPPPPPPSVLGVGPVA [WASL],4.54 ± 0.15,4.82 ± 0.25
KINKIRWLPQQNAAYFLLSTNDKT [PPP2R2B],2.69 ± 0.26,2.54 ± 0.039
DGITNGASWYSLSKGMQDFNYLHT [CPN1],2.35 ± 0.13,2.43 ± 0.22
PGLSQGPGKETLESALIALDSEKP [EHMT1],5.33 ± 0.28,5.31 ± 0.18
REAVSQLRELCRLWLRPETHTKEQ [ZNF24],2.8 ± 0.32,3.03 ± 0.41
RTRTATMLCAASGNPDPEITWFKD [PTPRD],3.64 ± 0.15,3.72 ± 0.35
YQTEQSLRLLVESDINSIRRILDE [KRT34],2.85 ± 0.18,2.97 ± 0.42
